Source: paper PMC9164069, “NADPH–Cytochrome P450 Reductase Mediates the Fatty Acid Desaturation of ω3 and ω6 Desaturases from Mortierella alpina” (Current Issues in Molecular Biology, 2022)

Key:
NADPH-CytP450R = target: T1, NADPH-CytP450R (Homo sapiens, UniProt P16435); assay: absorption shift of Cytb5 on reduction ([…] to […] nm); type: biochemical; conditions: pH 7.5, 25 °C; 100 mM Hepes, 150 mM NaCl, 0.25 µM CytP450R, 5 µM human Cytb5, 5 µM NADPH
T1 construct: gene POR; soluble catalytic domain, C-terminal 614 residues (VRESSFV through SLDVWS), N-terminal His6 tag (pET15b), E. coli BL21(DE3), about 70 kDa
T1 sequence (P16435 64-677): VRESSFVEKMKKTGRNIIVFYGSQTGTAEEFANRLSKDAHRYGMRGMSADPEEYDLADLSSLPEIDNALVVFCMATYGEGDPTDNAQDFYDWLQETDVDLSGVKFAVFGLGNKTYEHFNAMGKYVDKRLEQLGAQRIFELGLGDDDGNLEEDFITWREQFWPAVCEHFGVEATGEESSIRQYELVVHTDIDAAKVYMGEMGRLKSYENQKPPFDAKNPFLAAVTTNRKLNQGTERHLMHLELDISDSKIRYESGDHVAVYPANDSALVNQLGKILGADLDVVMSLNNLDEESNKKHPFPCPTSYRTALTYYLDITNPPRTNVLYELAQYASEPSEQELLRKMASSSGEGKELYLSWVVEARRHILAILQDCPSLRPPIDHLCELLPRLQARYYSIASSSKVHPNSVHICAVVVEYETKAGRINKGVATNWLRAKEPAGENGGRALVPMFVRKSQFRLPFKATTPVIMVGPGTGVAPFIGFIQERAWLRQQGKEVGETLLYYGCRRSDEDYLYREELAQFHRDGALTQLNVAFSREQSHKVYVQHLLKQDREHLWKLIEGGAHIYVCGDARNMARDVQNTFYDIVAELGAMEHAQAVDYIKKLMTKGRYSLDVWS

purified protein [1] = substrate: CCCCC/C=C\C/C=C\C/C=C\C/C=C\CCCC(=O)SCCNC(=O)CCNC(=O)[C@H](O)C(C)(C)COP(=O)(O)OP(=O)(O)OC[C@H]1O[C@@H](n2cnc3c(N)ncnc32)[C@H](O)[C@@H]1OP(=O)(O)O; assay: purified protein; type: biochemical, Mortierella alpina; conditions: pH 7.5, 28 °C, 25 mM Hepes, 150 mM NaCl, 1 µM NADPH, 100 nM desaturase, 0.5 µM human Cytb5, 1 µM human CytP450R, 0.002% Fos-16
purified protein [2] = substrate: CCCCC/C=C\C/C=C\C/C=C\CCCCC(=O)SCCNC(=O)CCNC(=O)[C@H](O)C(C)(C)COP(=O)(O)OP(=O)(O)OC[C@H]1O[C@@H](n2cnc3c(N)ncnc32)[C@H](O)[C@@H]1OP(=O)(O)O; assay: purified protein; type: biochemical, Mortierella alpina; conditions: pH 7.5, 28 °C, 25 mM Hepes, 150 mM NaCl, 1 µM NADPH, 100 nM desaturase, 0.5 µM human Cytb5, 1 µM human CytP450R, 0.002% Fos-16
purified protein [3] = substrate: CCCCC/C=C\C/C=C\CCCCCCCC(=O)SCCNC(=O)CCNC(=O)[C@H](O)C(C)(C)COP(=O)(O)OP(=O)(O)OC[C@H]1O[C@@H](n2cnc3c(N)ncnc32)[C@H](O)[C@@H]1OP(=O)(O)O; assay: purified protein; type: biochemical, Mortierella alpina; conditions: pH 7.5, 28 °C, 25 mM Hepes, 150 mM NaCl, 1 µM NADPH, 100 nM desaturase, 0.5 µM human Cytb5, 1 µM human CytP450R, 0.002% Fos-16
purified protein [4] = substrate: CCCCCC/C=C\CCCCCCCC(=O)SCCNC(=O)CCNC(=O)[C@H](O)C(C)(C)COP(=O)(O)OP(=O)(O)OC[C@H]1O[C@@H](n2cnc3c(N)ncnc32)[C@H](O)[C@@H]1OP(=O)(O)O; assay: purified protein; type: biochemical, Mortierella alpina; conditions: pH 7.5, 28 °C, 25 mM Hepes, 150 mM NaCl, 1 µM NADPH, 100 nM desaturase, 0.5 µM human Cytb5, 1 µM human CytP450R, 0.002% Fos-16
purified protein [5] = substrate: CCCCCCCC/C=C\CCCCCCCC(=O)SCCNC(=O)CCNC(=O)[C@H](O)C(C)(C)COP(=O)(O)OP(=O)(O)OC[C@H]1O[C@@H](n2cnc3c(N)ncnc32)[C@H](O)[C@@H]1OP(=O)(O)O; assay: purified protein; type: biochemical, Mortierella alpina; conditions: pH 7.5, 28 °C, 25 mM Hepes, 150 mM NaCl, 1 µM NADPH, 100 nM desaturase, 0.5 µM human Cytb5, 1 µM human CytP450R, 0.002% Fos-16

## NC(=O)C1=CN([C@@H]2O[C@H](COP(=O)(O)OP(=O)(O)OC[C@H]3O[C@@H](n4cnc5c(N)ncnc54)[C@H](OP(=O)(O)O)[C@@H]3O)[C@@H](O)[C@H]2O)C=CC1 [NADPH]
NADPH-CytP450R
  absorption shift of Cytb5 on reduction (412 to 422, 521, 554 nm): when NADPH was added, Cytb5 was instantly reduced

B1: M. alpina ω3 desaturase (Mortierella alpina) (protein)
chain: MAPPHVVDEQVRRRIVVEDEIKSKKQFERNYVPMDFTIKEIRDAIPAHLFIRDTTKSILHVVKDLVTIAIVFYCATFIETLPSLALRVPAWITYWIIQGTVMVGPWILAHECGHGAFSDSKTINTIFGWVLHSALLVPYQAWAMSHSKHHKGTGSMTKDVVFIPATRSYKGLPALEKPAVEEEVSEQEHHHHEESIFAETPIYTLGALLFVLTFGWPLYLIVNFSGHEAPHWVNHFQTVAPLYEPHQRKNIFYSNCGIVAMGSILTYLSMVFSPLTVFMYYGIPYLGVNAWIVCITYLQHTDPKVPHFRDNEWNFQRGAACTIDRSFGTIVNHLHHHIGDSHQCHHMFSQMPFYNAVEATKYLKAKLGKYYIFDDTPIAKALYRNWRECKFVEDEGDVVFYKH
notes: membrane desaturase expressed in Pichia pastoris (pPink-HC) with 3C site, ZZ-tag and RGS-His10-tag; tags cut off by rhinovirus 3C protease; Fos-Choline-16 solubilized, IgG Sepharose and size exclusion purified
Purified protein [1]
  Km: 157.0 ± 23.8 µM
  kcat: 0.0233 ± 0.00167 s⁻¹
  kcat/Km: 167 M⁻¹ s⁻¹
Purified protein [2]
  Km: 87.8 ± 9.9 µM
  kcat: 0.168 ± 0.00667 s⁻¹
  kcat/Km: 2000 M⁻¹ s⁻¹
Purified protein [3]
  Km: 16.0 ± 2.2 µM
  kcat: 0.11 ± 0.01 s⁻¹
  kcat/Km: 6830 M⁻¹ s⁻¹

B2: M. alpina ω6 desaturase (Mortierella alpina) (protein)
chain: MAPPNTIDAGLTQRHISTSAAPTSAKPAFERNYQLPEFTIKEIRECIPAHCFERSGLRGLCHVAIDLTWASLLFLAATQIDKFENPLIRYLAWPAYWIMQGIVCTGIWVLAHECGHQSFSTSKTLNNTVGWILHSMLLVPYHSWRISHSKHHKATGHMTKDQVFVPKTRSQVGLPPKENAAAAVQEEDMSVHLDEEAPIVTLFWMVIQFLFGWPAYLIMNASGQDYGRWTSHFHTYSPIFEPRNFFDIIISDLGVLAALGALIYASMQLSLLTVTKYYIVPYLFVNFWLVLITFLQHTDPKLPHYREGAWNFQRGALCTVDRSFGKFLDHMFHGIVHTHVAHHLFSQMPFYHAEEATYHLKKLLGEYYVYDPSPIVVAVWRSFRECRFVEDHGDVVFFKK
notes: as for B1
Purified protein [4]
  Km: 3.9 ± 0.9 µM
  kcat: 0.00333 ± 0.000167 s⁻¹
  kcat/Km: 667 M⁻¹ s⁻¹
Purified protein [5]
  Km: 5.4 ± 0.8 µM
  kcat: 0.00833 ± 0.000333 s⁻¹
  kcat/Km: 1500 M⁻¹ s⁻¹
